The star is where a group is joined. 5‑TAMRA = CN(C)c1ccc2c(-c3ccc(C(=O)*)cc3C(=O)[O-])c3ccc(N(C)C)cc3[o+]c2c1
Molecular target: CaM WT (UniProt P0DP23 1-149)
Assay: fluorescence polarisation

Binder | binding result
5-TAMRA-labeled CaV1.3 IQ peptide (5-TAMRA on the N-terminus; C-terminal amide (NH2)) peptide: not shown | binds
{5‑TAMRA}-TDLTVGKIYAAMMIMEYYRQSKAKKLQAMREEQD-NH2 (SMILES CC[C@H](C)[C@H](NC(=O)[C@H](CCCCN)NC(=O)CNC(=O)[C@@H](NC(=O)[C@@H](NC(=O)[C@H](CC(C)C)NC(=O)[C@H](CC(=O)O)NC(=O)[C@@H](NC(=O)c1ccc(-c2c3ccc(N(C)C)cc3[o+]c3cc(N(C)C)ccc23)c(C(=O)[O-])c1)[C@@H](C)O)[C@@H](C)O)C(C)C)C(=O)N[C@@H](Cc1ccc(O)cc1)C(=O)N[C@@H](C)C(=O)N[C@@H](C)C(=O)N[C@@H](CCSC)C(=O)N[C@@H](CCSC)C(=O)N[C@H](C(=O)N[C@@H](CCSC)C(=O)N[C@@H](CCC(=O)O)C(=O)N[C@@H](Cc1ccc(O)cc1)C(=O)N[C@@H](Cc1ccc(O)cc1)C(=O)N[C@@H](CCCNC(=N)N)C(=O)N[C@@H](CCC(N)=O)C(=O)N[C@@H](CO)C(=O)N[C@@H](CCCCN)C(=O)N[C@@H](C)C(=O)N[C@@H](CCCCN)C(=O)N[C@@H](CCCCN)C(=O)N[C@@H](CC(C)C)C(=O)N[C@@H](CCC(N)=O)C(=O)N[C@@H](C)C(=O)N[C@@H](CCSC)C(=O)N[C@@H](CCCNC(=N)N)C(=O)N[C@@H](CCC(=O)O)C(=O)N[C@@H](CCC(=O)O)C(=O)N[C@@H](CCC(N)=O)C(=O)N[C@@H](CC(=O)O)C(N)=O)[C@@H](C)CC) [5-TAMRA-labeled CaV2.1 IQ peptide] | binds

Reference: publication doi:10.1101/2024.12.02.626503 (bioRxiv, 2024)
